Results on three substances are retold here after article PMC6453562.

Common to all, as to experiment: native gel or EMSA
(In EMSA bound probe runs differently from free probe, usually more slowly.)

In assay [1] the target is BG505 SOSIP.664-His trimer (HIV-1 (BG505)) (UniProt Q2N0S6).
Assay [2] has as its target B41 SOSIP.v4.1-His trimer (HIV-1 (B41)).
Assay [3] has as its target BG505 SOSIP.664 trimer (HIV-1 (BG505)) (UniProt Q2N0S6).

As a reminder, the stoichiometry N is the number of molecules, sites or subunits per partner or assembly. In turn, “BG505 SOSIP.664-His trimer (from UniProt Q2N0S6 1-860; Q2N0S6 1-860) (complex)” yielded a stoichiometry N in assay [1] of 3.

In assay [2], B41 SOSIP.v4.1-His trimer (complex) registered a stoichiometry N of 3.

As to “BG505 SOSIP.664 trimer (from UniProt Q2N0S6 1-860; Q2N0S6 1-860) (complex)”, in assay [3], the stoichiometry N turned out to be 3.
